Data on two molecules can be found in PMC11574045, “A cofactor-induced repressive type of transcription factor condensation can be induced by synthetic peptides to suppress tumorigenesis” (The EMBO Journal, 2024).

The subject of assay [1] is HEK293FT cells transfected with TF library. Kind of assay: Screening of TF condensates based on fluorescent puncta. The assay is classed as cell-based. Particulars: Figure 1B numerical data; TF library screen, one value per transcriptional factor. Summed up: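 TF plasmids (final 1.6 μg/ml) reverse-transfected with PEI (4.8 μg/ml) into HEK293FT cells; after 60 h, cells cultured ±glucose for 12 h, fixed in 4% PFA and immunostained for Flag or GAL4 tags with Alexa 488 secondaries. Puncta scored by automated imaging of 50 random fields per well.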

The test system of another assay is GFP-TEAD4 condensates. Put plainly: siRNA screening based on TEAD4 condensate. The class given is cell-based. To be noted: Figure 2B source data; siRNA against the named gene; Z score based analysis. How it is done:
siRNA reagents were obtained from the Dharmacon Human ON-TARGETplus siRNA Smartpool Library (Thermo) as described previously (Tang et al, [2020]). […] Lipofectamine RNAiMAX reagent (Thermo) at a volume of 0.05 μl per well was then added to the siRNA-loaded plates. Subsequently, cells expressing GFP-TEAD4 were seeded into the plate at 2000 cells per well. After subsequent transfection for 48 h, the cells were fixed with 4% PFA at room temperature for 30 min. DAPI was used to identify individual nuclei. The plates were kept at 4 °C in the dark before being analyzed using the Opera system. Twenty focus fields per well were scanned and analyzed. Scrambled siRNA was used as an internal reference on each plate.

For the next assay, the system named is HGC-27 cells. Kind of assay: siRNA screening based on cell growth. Also on record: species or system human. Particulars: Figure 2B source data; siRNA against the named gene; Z score based analysis. How it is done: For screening based on cell growth, HGC-27 cells (2000 per well) were seeded into a 96-well plate overnight. The individual siRNAs targeting 192 BioID-identified genes were then added into each well to a final concentration of 25 nM. After subsequent incubation for 48 h, the cells were analyzed using an ATP-based CellCounting-Lite^TM 2.0 reagent (Vazyme, Nanjing, China) according to the manufacturer’s instructions. The intracellular ATP contents were measured using an EnSight™ Multimode Microplate Reader (Perkin Elmer).

Assay [2] has as its system GFP-TEAD4 condensates in HEK293FT cells. Put plainly: GFP-TEAD4 condensate imaging, condensed fraction in cells. Particulars: Figure 2D source data, GFP-TEAD4 condensates with co-expressed cofactor, with or without 1,6-Hex, single measurement. The class given is cell-based.

B1: TEAD4 (protein, UniProt Q15561 1-434, looked up)
Transcriptional enhancer …: MEGTAGTITSNEWSSPTSPEGSTASGGSQALDKPIDNDAEGVWSPDIEQSFQEALAIYPPCGRRKIILSDEGKMYGRNELIARYIKLRTGKTRTRKQVSSHIQVLARRKAREIQAKLKDQAAKDKALQSMAAMSSAQIISATAFHSSMALARGPGRPAVSGFWQGALPGQAGTSHDVKPFSQQTYAVQPPLPLPGFESPAGPAPSPSAPPAPPWQGRSVASSKLWMLEFSAFLEQQQDPDTYNKHLFVHIGQSSPSYSDPYLEAVDIRQIYDKFPEKKGGLKDLFERGPSNAFFLVKFWADLNTNIEDEGSSFYGVSSQYESPENMIITCSTKVCSFGKQVVEKVETEYARYENGHYSYRIHRSPLCEYMINFIHKLKHLPEKYMMNSVLENFTILQVVTNRDTQETLLCIAYVFEVSASEHGAQHHIYRLVKE
As to B1, the entries for the “Z score of condensed fraction” value (in assay [1]; in the assay on GFP-TEAD4 condensates) were 3.255 and 1.0247, respectively. In the assay with HGC-27 cells, the “Z score of cell growth” value amounted to 0.6975.

B2: RFXANK (protein)
chain: MELTQPAEDLIQTQQTPASELGDPEDPGEEAADGSDTVVLSLFPCTPEPVNPEPDASVSSPQAGSSLKHSTTLTNRQRGNEVSALPATLDSLSIHQLAAQGELDQLKEHLRKGDNLVNKPDERGFTPLIWASAFGEIETVRFLLEWGADPHILAKERESALSLASTGGYTDIVGLLLERDVDINIYDWNGGTPLLYAVRGNHVKCVEALLARGADLTTEADSGYTPMDLAVALGYRKVQQVIENHILKLFQSNLVPADPE
As to B2, the “Z score of condensed fraction” value with GFP-TEAD4 condensates is on record as -3.941. Also, the Condensed fraction is reported as 37.5428% in assay [2] (replicate 1 of 9); 33.3337% in assay [2] (replicate 2 of 9); 44.4467% in assay [2] (replicate 3 of 9); 47.0652% in assay [2] (replicate 4 of 9); 51.3041% in assay [2] (replicate 5 of 9); 37.5405% in assay [2] (replicate 6 of 9). For the same molecule, the Condensed fraction in assay [2] (replicate 7 of 9) stood at 26.519%; in assay [2] (replicate 8 of 9), 36.7045%; in assay [2] (replicate 9 of 9) it was 37.5001%. Further, in the assay on HGC-27 cells, the “Z score of cell growth” value stood at 3.094.
